Reference: patent publication US9051577 (GREENOVATION BIOTECH, dated 2015)

Key:
Assay in all cases: cell-based or functional assay
[1] = biological target: Fcgamma-RIII receptor (CD16) on human PBMC effector cells, 158 genotype of the donor not stated (human) (UniProt P08637)
[2] = biological target: CD16 (FcgammaRIIIa) 158V/V, high affinity phenotype, on effector cells (PBMC/NK) of a human donor (human) (UniProt P08637)
[3] = biological target: CD16 (FcgammaRIIIa) 158F/F, low affinity phenotype, on effector cells (PBMC/NK) of a human donor (human) (UniProt P08637)
[4] = biological target: CD16 (FcgammaRIIIa) 158V/V, high affinity phenotype, on effector cells (PBMC/NK) of a human donor (human, UniProt P08637 17-254)
[5] = biological target: CD16 (FcgammaRIIIa) 158F/F, low affinity phenotype, on effector cells (PBMC/NK) of a human donor (human, UniProt P08637 17-254)
[6] = biological target: Fcgamma-RIII receptor (CD16) on human PBMC effector cells, 158 genotype of the donor not stated (human, UniProt P08637 17-254)
Fcgamma-RIII receptor (CD16) on human PBMC effector cells, 158 genotype of the donor not stated, sequence (P08637 17-254): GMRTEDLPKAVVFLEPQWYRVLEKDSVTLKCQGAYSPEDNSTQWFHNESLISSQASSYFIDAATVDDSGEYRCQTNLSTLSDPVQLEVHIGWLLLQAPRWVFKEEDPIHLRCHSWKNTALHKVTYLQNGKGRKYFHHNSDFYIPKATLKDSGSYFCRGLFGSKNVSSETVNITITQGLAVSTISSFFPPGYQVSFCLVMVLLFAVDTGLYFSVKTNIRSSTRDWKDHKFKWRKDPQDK

CD16 (FcgammaRIIIa) 158V/V, high affinity phenotype, on effector cells (PBMC/NK) of a human donor (human), sequence (P08637 17-254 F176V): as the sequence (P08637 17-254) above, with F160V counted along it
CD16 (FcgammaRIIIa) 158V/V, high affinity phenotype, on effector cells (PBMC/NK) of a human donor, sequence (P08637 17-254 F176V): as the sequence (P08637 17-254) above, with F160V counted along it
CD16 (FcgammaRIIIa) 158F/F, low affinity phenotype, on effector cells (PBMC/NK) of a human donor (human), sequence (P08637 17-254): as the sequence (P08637 17-254) above
Fcgamma-RIII receptor (CD16) on human PBMC effector cells, 158 genotype of the donor not stated (human), sequence (P08637 17-254): as above
CD16 (FcgammaRIIIa) 158F/F, low affinity phenotype, on effector cells (PBMC/NK) of a human donor, sequence (P08637 17-254): as above

Molecule | EC50 of ADCC lysis of SK-BR-3 cells by human PBMC in 10% FCS [1] [µg/mL] | EC50 of ADCC lysis of SK-BR-3 cells by human PBMC in 40% NHS [1] [µg/mL] | EC50 of ADCC lysis (51Cr release), OVCAR-3 target cells, CD16158 V/V effector cells [2] [µg/mL] | EC50 of ADCC lysis (51Cr release), SK-BR-3 target cells, CD16158 V/V effector cells [2] [µg/mL] | EC50 of ADCC lysis (51Cr release), TF-1 target cells, CD16158 V/V effector cells [2] [µg/mL] | Enhancement (ADCC EC50 of IGN311 against IGN314), OVCAR-3, V/V effector cells [2] [fold] | Enhancement (ADCC EC50 of IGN311 against IGN314), SK-BR-3, V/V effector cells [2] [fold] | Enhancement (ADCC EC50 of IGN311 against IGN314), TF-1, V/V effector cells [2] [fold] | EC50 of ADCC lysis (51Cr release), OVCAR-3 target cells, CD16158 F/F effector cells [3] [µg/mL] | Enhancement (ADCC EC50 of IGN311 against IGN314), OVCAR-3, F/F effector cells [3] [fold] | EC50 of ADCC lysis (51Cr release), OVCAR-3 target cells, CD16158 V/V effector cells [4] [µg/mL] | EC50 of ADCC lysis (51Cr release), SK-BR-3 target cells, CD16158 V/V effector cells [4] [µg/mL] | EC50 of ADCC lysis (51Cr release), TF-1 target cells, CD16158 V/V effector cells [4] [µg/mL] | EC50 of ADCC lysis (51Cr release), OVCAR-3 target cells, CD16158 F/F effector cells [5] [µg/mL] | EC50 of ADCC lysis of SK-BR-3 cells by human PBMC in 10% FCS [6] [µg/mL] | EC50 of ADCC lysis of SK-BR-3 cells by human PBMC in 40% NHS [6] [µg/mL]
IGN314, glyco-engineered IGN311 variant expressed in delta-xyl-t/delta-fuc-t double knockout moss (Physcomitrella patens) (antibody) | 0.052 | 0.126 | 0.008 | 0.144 | 0.366 | 39 | 7 | 15 | 0.025 | 40 |  |  |  |  |  | 
IGN311, humanized monoclonal IgG anti-Lewis Y antibody (parental, expressed in SP 2.0 cells) (antibody, V domains shown, N-glycan at Asn297 almost completely core-fucosylated, with terminal galactosylation; C-terminal lysine of the heavy chain partly present (both SLSLSPG and SLSLSPGK detected)) VH: EVQLLESGGGLVQPGGSLRLSCAASGFTFSDYYMYWVRQAPEKRLEWVAYISNGGGSSHYVDSVKGRFTISRDNSKNTLYLQMNSLRAEDTALYHCARGMDYGAWFAYWGQGTLVTVSS VL: DIVMTQSPLSLPVTPGEPASISCRSSQSIVHSNGNTYLEWYLQKPGQSPQLLISKVSNRFSGVPDRFSGSGSGTDFTLKISRVEAEDVGVYYCFQGSHVPFTFGQGTKLEIK |  |  |  |  |  |  |  |  |  |  | 0.315 | 1.04 | 5.32 | 0.993 | 0.301 | 1.56
